Measured values taken from PMC8304084, “A Concerted Action of UBA5 C-Terminal Unstructured Regions Is Important for Transfer of Activated UFM1 to UFC1” (International Journal of Molecular Sciences, 2021).

Experiments:
[1] = target: T1, UFC1 (Homo sapiens, UniProt Q9Y3C8); experiment: ITC, UBA5 constructs vs UFC1; assay type: binding
T1 construct: Full length UFC1, residues 1–167; modified ubiquitin tag (Ub19) with TEV site (N, cleaved yes); made in house; host or cells: E. coli T7 Express
T1 sequence (Q9Y3C8 1-167): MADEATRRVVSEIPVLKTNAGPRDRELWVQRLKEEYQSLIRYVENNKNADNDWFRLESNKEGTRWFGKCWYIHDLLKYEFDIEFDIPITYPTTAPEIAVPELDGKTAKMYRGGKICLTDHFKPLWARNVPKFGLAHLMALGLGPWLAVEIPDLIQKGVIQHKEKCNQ
Excerpt: (§1) To understand how the UBA5 C-terminus participates in the ufmylation cascade, we performed isothermal titration calorimetry (ITC) experiments, in which we titrated UBA5 C-terminal peptides (see Table 1) to the UBA5 AD, UFC1, UFM1 and representative LC3/GABARAP proteins (Figure 2A, Supplementary Figure S2A–D and Table 2).
To investigate if conjugation of UFM1 to the UBA5 catalytic cysteine (C250) affects the UFC1:UBA5 interactions, we prepared full length UBA5 C250K mutant and stably conjugated UFM1 to it as reported before for a number of ubiquitin-specific E2 enzymes. We compared the UFC1 spectra after addition of a twofold molar excess of FL^1–404 and FL^1–404 C250K~UFM1 constructs (Supplementary Figure S5C).
(§2) All proteins and peptides were expressed in E.Coli T7 Express (New England Biolabs GmbH, Frankfurt, Germany) cells in LB or M9 (to obtain ^15N- and ^13C,^15N-labeled polypeptides) media according to the protocol described in [33, 36]. For protein purification, bacterial cell pellets were resuspended in lysis buffer (50 mM Tris-HCl pH = 7.5, 100 mM NaCl, 5% glycerol, 5 mM PIC (protease inhibitor cocktail)) and lysed via sonication (TT13 Sonotrode, 40% amplitude, for 6 × 1 min with a 0.5/0.5-s pulse). Lysates were centrifuged for 45 min at 17,000× g at 4 °C. Supernatants were loaded onto a His Trap Fast Flow 5 mL column (GE Healthcare, München, Germany) equilibrated in loading buffer (50 mM Tris-HCl pH = 8.0, 250 mM NaCl, 1% glycerol, 20 mM imidazole). The column was washed with loading buffer for 5–10 CV and protein was eluted with elution buffer (50 mM Tris-HCl pH = 8, 250 mM NaCl, 1% glycerol, 400 mM imidazole). Simultaneous TEV cleavage (1 mg TEV protease was added to 100 mg peptides/proteins) and buffer exchange to loading buffer via dialysis was performed over night at 4 °C. After reverse IMAC, proteins were concentrated with conical concentrators (Millipore Merck, Darmstadt, Germany) and loaded on a Superdex 10/60 75 or 200 column (GE Healthcare, München, Germany) for further purification and equilibration with ITC/NMR buffer (25 mM HEPES pH = 7.5, 100 mM NaCl). For structural NMR spectroscopy, buffer containing 50 mM Tris-HCl pH = 7.5, 100 mM NaCl was used. Prior to NMR experiments, TCEP and protease inhibitors cocktail were added to the samples to final concentrations 1 and 5 mM, respectively. Purified peptides and protein were concentrated and stored at −80 °C. The protein and peptide concentrations were calculated from the UV absorption at 280 nm by Nanodrop spectrophotometer (Thermo Scientific, Langenselbold, Germany).
(§3) All ITC experiments were performed at 25 °C using a VP-ITC microcalorimeter (Malvern Panalytical Ltd., Malvern, UK). Peptides in concentration of ~400 µM were titrated into 20–25 µM solutions of corresponding binding partner at a stirring speed of 307 rpm. The raw data were corrected on the dilution heat of peptides obtained in independent experiment (titration of the peptide in syringe into the ITC/NMR buffer in the measuring cell). Pre-titration delay was set to 180 s, interval between titration steps was experimentally adjusted to avoid kinetic contribution to the observed heat effects and set to 200 s. A single ITC profile was collected for each type of interaction. The ITC data were analyzed based on a “one-site” binding model with MicroCal ITC software implemented in Origin 7.0.

[2] = target: T2, LC3B (Homo sapiens, UniProt Q9GZQ8); experiment: ITC, UBA5 peptides vs LC3B; assay type: binding; conditions: 25 °C, vs LC3B
T2 construct: LC3B, residues 5–120; ubiquitin tag Ub3 (vector pETm60_Ub3) (cleaved yes); made in house; host or cells: E. coli T7 Express
Excerpt: as §1, §2, §3

[3] = system: Ub; experiment: Interaction of ubiquitin with UBA5 C-terminal region; assay type: binding
Method: as §3

[4] = target: T1, UFC1; experiment: In vitro thioester formation (ufmylation) assay, UFC1~UFM1 conjugate; assay type: biochemical; conditions: 1 mM ATP, 22 °C; peptides added to UBA5 AD^1–330 where applicable
Method: First, we analyzed the effect of the UBA5 C-terminus on UFM1 transfer to UFC1 with an in vitro thioester formation assay (Figure 1B–E).
Ufmylation reaction assays were adopted from work of Xie. Briefly, 70 µM UFM1, 20 µM UFC1 and 20 µM of different UBA5 constructs were mixed in reaction buffer (50 mM HEPES pH = 7.5, 100 mM NaCl, 5 mM MgCl2). After starting the reaction with addition of 1 mM ATP, the reaction mix was incubated at 22 °C for the desired time. To quench the reaction and prepare electrophoretic samples, 1 µL of the reaction mix was added to 99 µL 1x non-reducing SDS loading buffer and frozen in liquid nitrogen. Sample content was visualized by sodium dodecyl sulfate polyacrylamide gel electrophoresis (SDS-PAGE). The transfer to polyvinylidene difluoride (PVDF) membrane was performed via a Trans-Blot® Turbo™ Transfer System (Bio-Rad, München, Germany). After transfer the membrane was blocked with TBST (Tris-buffered saline with Tween20 buffer, 20 mM Tris, 150 mM NaCl and 0.1% TWEEN 20) containing 5% w/v nonfat dry milk for 1 h, followed by α-UFC1 antibody incubation over night at 4 °C (ab189251 abcam, 1:10,000 in TBST containing 5% w/v nonfat dry milk). After washing with TBST the membrane was incubated with secondary antibody (anti-rabbit-HRP) for 1 h at RT and again washed with TBST. Detection was performed by addition of ECL solution. For quantification of UFC1 ufmylation coloc2 software implemented in ImageJ was used.

[5] = target: T3, GABARAPL2 (Homo sapiens, UniProt P60520); experiment: NMR titration with GABARAPL2; assay type: binding; conditions: NMR titration of 15N-labeled R1-R2-R3^325–404 with GABARAPL2, 25 °C
T3 construct: modified ubiquitin tag (Ub19) with TEV site (N, cleaved yes); made in house; host or cells: E. coli T7 Express
T3 sequence (P60520 3-116): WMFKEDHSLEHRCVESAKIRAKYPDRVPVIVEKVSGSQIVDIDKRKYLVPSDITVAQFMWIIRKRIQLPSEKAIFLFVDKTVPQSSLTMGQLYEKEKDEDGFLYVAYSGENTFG

For “R1-R2-R3^325–404: UBA5 C-terminal part, residues 325–404 (recombinant, E. coli)”, which N ([1]; ITC stoichiometry, peptide vs UFC1, ± = fitting error) is on record?
The N was 1.03 ± 0.01.

And the “affinity increase to UFC1 vs R3^388–404” value ([1]; ITC, 25 °C)?
Its value is 3 fold.

And the ΔG ([1]; ITC, 25 °C, peptide vs UFC1)?
Its ΔG is -7.66 kcal/mol.

What about the “−T*ΔS” value ([1]; ITC, 25 °C, peptide vs UFC1) of the same substance?
The value was -0.62 kcal/mol.

And the ΔS ([1]; ITC, 25 °C, peptide vs UFC1, one-site model, single profile)?
Its ΔS is 2.09 cal mol^−1 K^−1.

And the “KA*10^−6” value ([1]; ITC, 25 °C, peptide vs UFC1, value is KA × 10^−6, ± = fitting error)?
Its value is 0.41 ± 0.02 M^−1.

What about the Kd ([1]; ITC, VP-ITC, 25 °C, peptide ~400 µM titrated into 20–25 µM UFC1, 25 mM HEPES pH 7.5, 100 mM NaCl, one-site model, single ITC profile) of the same substance?
The Kd was 2.4 µM.

What about the ΔH ([1]; ITC, VP-ITC, 25 °C, peptide ~400 µM titrated into 20–25 µM UFC1, 25 mM HEPES pH 7.5, 100 mM NaCl, one-site model, single ITC profile, ± = fitting error) of the same substance?
Its ΔH is -7.04 ± 0.07 kcal/mol.

And the ΔG [2]?
The ΔG was -7.33 kcal/mol.

And the ΔS [2]?
Its ΔS is 8.86 cal mol^−1 K^−1.

What about the “−T*ΔS” value [2] of the same substance?
Its value is -2.64 kcal/mol.

And the “KA*10^−6” value ([2]; value is KA × 10^−6, ± = fitting error)?
The value was 0.24 ± 0.09 M^−1.

And the interaction with ubiquitin [3]?
The interaction with ubiquitin was “no interaction”.

And the “effect on UFC1~UFM1 conjugation (in words)” value [4]?
Its value is “gets rescued”.

What about the “interaction with GABARAPL2 (in words)” value [5] of the same substance?
The value was “GABARAPL2 binds first to the LIR/UFIM region, and after saturation of this binding site, GABARAPL2 interacts with additional sites within the UBA5 C-terminus”.
